Measurements: patent publication US20250313625A1 (ELPISCIENCE SUZHOU BIOPHARMA, published 2025)
Like-named read-outs stand apart in the source and are kept apart here.

T1: human LAG3, full length, stably expressed on cells (human, UniProt P18627 23-525)
T1 construct: whole, on cells; also called CHOK1-human LAG3
T1 sequence (looked up): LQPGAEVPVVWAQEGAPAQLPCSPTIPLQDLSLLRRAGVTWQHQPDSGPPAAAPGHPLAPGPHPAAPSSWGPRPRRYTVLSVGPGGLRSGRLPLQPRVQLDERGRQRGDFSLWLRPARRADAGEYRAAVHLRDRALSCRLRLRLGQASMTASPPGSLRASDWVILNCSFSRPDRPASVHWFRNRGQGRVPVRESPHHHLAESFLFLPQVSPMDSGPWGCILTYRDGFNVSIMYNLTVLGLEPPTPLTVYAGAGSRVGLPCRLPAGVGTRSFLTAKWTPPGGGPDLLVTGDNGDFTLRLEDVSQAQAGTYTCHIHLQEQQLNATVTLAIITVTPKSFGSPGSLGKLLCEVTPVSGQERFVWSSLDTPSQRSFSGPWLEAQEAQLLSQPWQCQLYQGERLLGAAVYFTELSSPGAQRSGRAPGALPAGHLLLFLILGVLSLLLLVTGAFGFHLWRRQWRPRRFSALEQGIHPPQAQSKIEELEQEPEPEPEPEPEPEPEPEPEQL

T2: human LAG3 (form used in Octet, Biacore and HDX-MS not given) (human, UniProt P18627 23-450, limits assumed)
T2 sequence (looked up): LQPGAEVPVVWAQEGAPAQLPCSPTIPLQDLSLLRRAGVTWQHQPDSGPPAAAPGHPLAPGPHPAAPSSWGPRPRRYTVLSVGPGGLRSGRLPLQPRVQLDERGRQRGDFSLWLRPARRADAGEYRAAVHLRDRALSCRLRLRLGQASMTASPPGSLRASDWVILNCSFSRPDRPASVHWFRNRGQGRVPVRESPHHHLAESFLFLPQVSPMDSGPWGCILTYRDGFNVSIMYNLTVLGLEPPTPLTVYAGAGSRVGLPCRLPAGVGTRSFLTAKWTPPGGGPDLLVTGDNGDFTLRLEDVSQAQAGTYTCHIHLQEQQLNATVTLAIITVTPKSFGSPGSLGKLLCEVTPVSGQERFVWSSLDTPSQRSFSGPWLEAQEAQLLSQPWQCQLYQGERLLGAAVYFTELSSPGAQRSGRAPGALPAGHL

T3: mFc tagged human LAG3 ECD recombinant protein (human, UniProt P18627 23-450)
T3 construct: extracellular domain; purchased from Biointron; not shown: mouse IgG Fc (mFc) tag
T3 sequence (looked up): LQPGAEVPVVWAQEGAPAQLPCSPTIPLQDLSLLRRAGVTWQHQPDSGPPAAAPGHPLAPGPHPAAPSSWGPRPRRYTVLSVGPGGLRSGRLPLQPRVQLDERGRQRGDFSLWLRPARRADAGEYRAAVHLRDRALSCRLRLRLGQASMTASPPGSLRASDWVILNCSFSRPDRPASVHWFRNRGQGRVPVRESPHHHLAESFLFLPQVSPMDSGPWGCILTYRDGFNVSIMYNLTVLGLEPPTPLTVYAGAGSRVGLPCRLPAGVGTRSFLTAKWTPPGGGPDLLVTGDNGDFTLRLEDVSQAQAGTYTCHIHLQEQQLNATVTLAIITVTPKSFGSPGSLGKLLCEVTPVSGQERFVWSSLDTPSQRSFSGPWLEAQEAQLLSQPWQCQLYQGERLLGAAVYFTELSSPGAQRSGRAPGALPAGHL

T4: human LAG3 ECD recombinant protein (plate coated, tag not stated) (human, UniProt P18627 23-450)
T4 construct: extracellular domain
T4 sequence (looked up): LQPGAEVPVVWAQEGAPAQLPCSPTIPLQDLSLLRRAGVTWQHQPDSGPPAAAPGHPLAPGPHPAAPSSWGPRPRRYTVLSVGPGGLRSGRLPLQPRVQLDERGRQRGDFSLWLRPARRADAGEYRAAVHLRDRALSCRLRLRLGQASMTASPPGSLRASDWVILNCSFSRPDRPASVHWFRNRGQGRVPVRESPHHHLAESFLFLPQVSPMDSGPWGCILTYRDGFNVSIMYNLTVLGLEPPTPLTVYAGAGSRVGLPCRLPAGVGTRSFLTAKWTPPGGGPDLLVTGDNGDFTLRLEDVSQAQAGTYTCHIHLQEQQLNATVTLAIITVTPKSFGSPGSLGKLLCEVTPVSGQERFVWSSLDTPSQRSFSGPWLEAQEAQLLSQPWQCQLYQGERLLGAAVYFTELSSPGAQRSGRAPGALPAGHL

T5: hFc tagged human LAG3 ECD recombinant protein (human, UniProt P18627 23-450)
T5 construct: range 23-450; also called biotin labelled hFc tagged human LAG3 ECD; not shown: human IgG Fc tag
T5 sequence (looked up): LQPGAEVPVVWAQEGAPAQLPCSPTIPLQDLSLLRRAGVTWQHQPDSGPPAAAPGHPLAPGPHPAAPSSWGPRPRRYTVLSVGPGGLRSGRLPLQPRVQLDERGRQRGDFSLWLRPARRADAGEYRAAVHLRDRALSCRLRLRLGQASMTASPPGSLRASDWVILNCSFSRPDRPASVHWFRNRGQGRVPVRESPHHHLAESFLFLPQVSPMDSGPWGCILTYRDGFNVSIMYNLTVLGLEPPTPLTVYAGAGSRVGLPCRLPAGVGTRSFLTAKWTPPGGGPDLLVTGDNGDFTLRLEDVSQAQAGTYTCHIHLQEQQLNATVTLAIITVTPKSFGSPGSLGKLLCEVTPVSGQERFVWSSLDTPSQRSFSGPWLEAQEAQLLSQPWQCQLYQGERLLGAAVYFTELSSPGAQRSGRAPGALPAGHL


What was measured:
[1] = biological target: T1, human LAG3, full length, stably …; experiment: FACS on 293F cells stably expressing human LAG3
Experimental: (§1) Briefly the antibodies were incubated with 2×10⁵ target cells at 4° C. for 1 hour. After washing, fluorescence labeled anti-mouse IgG 2nd antibody (Life Technologies) was added and incubated at 4° C. for 1 hour. Geometric median fluorescence intensity (MFI) was detected and EC₅₀ was calculated using GraphPad Prism9.0.
(§2) MFI was detected and EC₅₀ was calculated using GraphPad Prism9.0.

[2] = biological target: T2, human LAG3 (form used in Octet, Biacore …); experiment: BLI (Octet), 1:1 fit
Experimental: The purified chimeric antibodies were characterized for binding affinity against human LAG3 using Bio-Layer Interferometry technology (Octet system). The association and dissociation curves were fit with 1:1 binding model, and the Ka/Kd/KD values for each antibody were calculated.

[3] = biological target: T3, mFc tagged human LAG3 ECD recombinant …; experiment: competitive FACS: mFc-LAG3 ECD binding to Raji cells (MHC II)
Experimental: (§3) Activity of the purified chimeric antibodies to block LAG3 and MHC II interaction was determined by competitive FACS assay. […] After washing, dye labeled anti-mouse Fc 2nd antibody (Sigma) was added and incubated at 37° C. for 1 hour. Fluorescence intensity was detected.

[4] = biological target: T4, human LAG3 ECD recombinant protein …; experiment: competitive ELISA format I: His-FGL1 binding to coated LAG3 ECD
Experimental: (§4) After washing, HRP labeled anti-His 2nd antibody (Sigma) was added and incubated at 37° C. for 1 hour. Then, 100 μl/well of TMB solution (Biotechnology) was added. After incubation for 15 minutes at room temperature, the reaction was stopped by the addition of 50 μl of 1N HCl. OD 450 nm was read. […] After washing, HRP labeled anti-SA 2nd antibody (Sigma) was added and incubated at 37° C. for 1 hour. Then, 100 μl/well of TMB solution (Biotechnology) was added. After incubation for 15 minutes at room temperature, the reaction was stopped by the addition of 50 μl of 1N HCl. OD 450 nm was read. […] The competition assay of format III is a competitive FACS assay. […] After washing, dye labeled anti-His 2nd antibody (Sigma) was added and incubated at 37° C. for 1 hour. Fluorescence intensity was detected.

[5] = biological target: T1, human LAG3, full length, stably …; experiment: FACS on 293F cells stably expressing human LAG3; remark: listed apart in the source
Experimental: as §1, §2

[6] = biological target: T5, hFc tagged human LAG3 ECD recombinant …; experiment: competitive ELISA format II: biotin hFc-LAG3 ECD binding to coated His-FGL1
Experimental: as §4

[7] = biological target: T2, human LAG3 (form used in Octet, Biacore …); experiment: BLI (Octet)
[8] = biological target: T3, mFc tagged human LAG3 ECD recombinant …; experiment: competitive FACS: mFc-LAG3 ECD binding to Raji cells (MHC II); remark: listed apart in the source
Experimental: as §3

| Binder | EC50 [1] [nM] | TOP MFI [1] | Kd [2] [nM] | koff [2] [s⁻¹] | kon [2] [M⁻¹ s⁻¹] | IC50 [3] [nM] | TOP blocking (%) [3] [%] | Blocking ratio at 66.7 nM (%) [4] [%] | EC50 [5] [nM] | TOP MFI [5] | IC50 [6] [nM] | TOP blocking (%) [6] [%] | Kd [7] [nM] | koff [7] [s⁻¹] | kon [7] [M⁻¹ s⁻¹] | IC50 [8] [nM] | TOP blocking (%) [8] [%] |
| --- | --- | --- | --- | --- | --- | --- | --- | --- | --- | --- | --- | --- | --- | --- | --- | --- | --- |
| TSR-033 (antibody, V domains shown) VH: EVQLVQSGAEVKKPGATVKISCKASGFSIKDDYIHWVQQAPGKGLEWMGWIDAMNDDSQYSSKFQGRVTITVDTSTNTAYMKLSSLRSEDTAVYYCTYAFGGYWGQGTTVTVSS VL: DIVMTQTPLSLSVTPGQPASISCRSSQSLVHSDSNTYLHWYLQKPGQSPQLLIYLVSNRFSGVPDRFSGSGSGTDFTLKISRVEAEDVGVYFCGQSTHVPYAFGGGTKVEIK | 2.6 | 247 | 2.72 | 0.000674 | 248000 | 12.4 | 96 | – | – | – | – | – | – | – | – | – | – |
| 033c (antibody, human IgG4, V domains shown, human IgG4 S228P / kappa chimeric antibody; also called chimeric antibody 033; not shown: human kappa light chain constant region (pcDNA3.4-hIgGk vector)) VH: EVQLQQSGAELVRPGASVKLSCTASDFNIKDDYIHWVKQRPEQGLEWIGWIDLENGDTEYASKFQGKATITADTSSNTAYLQLSSLTSEDTAVYYCTTKGSHWGQGTLVTVSA VL: DVVMTQIPLSLPVSLGDQASISCRSSQSLVYSNGNTYLNWYLQKPGQSPKLLIHKVSNRFSGVPDRFSGSGSGTDFTLKISRVEAEDLGVYFCSQSTHVPYTFGGGTKLEIR | 2.4 | 394 | – | – | – | 3.9 | 95 | 67.8 | – | – | – | – | – | – | – | – | – |
| 048c (antibody, human IgG4, V domains shown, human IgG4 S228P / kappa chimeric antibody; also called chimeric antibody 048; not shown: human kappa light chain constant region (pcDNA3.4-hIgGk vector)) VH: EFQVQQSGPELVKPGASVKISCKASGYSFSDYNMNWLKQSTGKSLEWIGLVDPIYGTIRYNQKFKGKATLTVDQSSSTAYMQLNSLTSEDSAVYYCALITTSVRYFDYWGQGTTLTVSS VL: DVLMTQTPLSLPVSLGDQASISCRSSQNIVHTDGNTYLEWYLQKPGQSPKLLIYKVSNRFSGVPDRFSGSGSGTDFTLKISRVEAEDLGVYYCFQGSHVPPTFGGGTKLEIK | 1.3 | 289 | – | – | – | 4 | 64.6 | 41.2 | – | – | – | – | – | – | – | – | – |
| 039c (antibody, human IgG4, V domains shown, human IgG4 S228P / kappa chimeric antibody; also called chimeric antibody 039; not shown: human kappa light chain constant region (pcDNA3.4-hIgGk vector)) VH: EFQLQQSGPELVKPGASVKISCKASGYSFTDYNLNWVRQSNGKSLEWIGLVDPIYGTIRYNQNFKDKATLTVDQSSSTAYMQLNSLTSEDSAVYYCASIMTAVRYFDHWGQGTTLTVSS VL: DVLMTQTPLFLPVSLGDQASISCRSSLNIVHSDGNTYLEWYLQKPGQSPKLLIYKVSNRFSGVPDRFSGSGSGTDFTLKISGVEAEDLGVYYCFQGSHVPPTFGGGTKLEIK | 1.3 | 302 | – | – | – | 4.7 | 62 | 40.2 | – | – | – | – | – | – | – | – | – |
| hu023.07 (antibody, human IgG4, V domains shown, humanized from 023c) VH: QVQLVQSGPEVKKPGASVKVSCKASGYTFTESPMNWVRQAPGQGFEWMGIIYTDTGEPTYAEEFKGRVTMTLDTSTSTVYMELSSLRSEDTAVYFCASDYGSILYWYFDVWGQGTLVTVSS VL: DIQMTQSPSSLSASVGDRVTITCKASQDVSTAVAWYQQKPGKAPKLLIYSASYRYTGVPSRFSGSGSGTDFTLTISSLQPEDFATYYCQQHYNAPPTFGQGTKLEIK | – | – | – | – | – | – | – | – | 0.32 | 2990 | 1.5 | 81.3 | 0.591 | 0.000153 | 259000 | 5.5 | 99.2 |
| hu023.10 (antibody, human IgG4, V domains shown, humanized from 023c) VH: QVQLVQSGPELKKPGASVKVSCKASGYTFTESPMNWVRQAPGQGFEWMGIIYTDTGEPTYAEEFKGRFVFSLDTSVSTAYLQISSLKAEDTAVYFCVSDYGSILYWYFDVWGQGTLVTVSS VL: DIQMTQSPSSLSASVGDRVTITCKASQDVSTAVAWYQQKPGKAPKLLIYSASYRYTGVPSRFSGSGSGTDFTLTISSLQPEDFATYYCQQHYNAPPTFGQGTKLEIK | – | – | – | – | – | – | – | – | 0.2 | 3200 | 1.3 | 82.8 | 0.281 | 7.96e-05 | 284000 | 5.9 | 99.2 |
| hu023.13 (antibody, human IgG4, V domains shown, humanized from 023c) VH: QIQLVQSGPELKKPGASVKISCKASGYTFTESPMNWVRQAPGQGFEWMGIIYTDTGEPTYAEEFKGRFVFSLDTSVSTAYLQISSLKAEDTAVYFCVSDYGSILYWYFDVWGQGTLVTVSS VL: DIQMTQSPSSLSASVGDRVTITCKASQDVSTAVAWYQQKPGKAPKLLIYSASYRYTGVPSRFSGSGSGTDFTLTISSLQPEDFATYYCQQHYNAPPTFGQGTKLEIK | – | – | – | – | – | – | – | – | 0.19 | 3100 | 1.2 | 83.2 | 0.121 | 3.67e-05 | 303000 | 5.7 | 99.3 |
